T1: protease-activated receptor 4 (PAR4), wild type, expressed on transiently transfected COS-7 cells (human, UniProt Q96RI0 18-385)
T1 sequence: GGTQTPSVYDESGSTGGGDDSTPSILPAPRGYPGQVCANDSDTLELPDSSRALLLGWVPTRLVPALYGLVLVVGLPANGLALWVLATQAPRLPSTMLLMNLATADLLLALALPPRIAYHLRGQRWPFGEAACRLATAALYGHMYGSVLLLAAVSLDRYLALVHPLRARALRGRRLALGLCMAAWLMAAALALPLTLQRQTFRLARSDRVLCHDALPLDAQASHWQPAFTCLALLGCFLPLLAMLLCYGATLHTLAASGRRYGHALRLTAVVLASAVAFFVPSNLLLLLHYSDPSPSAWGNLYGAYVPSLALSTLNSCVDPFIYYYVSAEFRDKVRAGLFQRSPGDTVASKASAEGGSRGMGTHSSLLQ

T2: PAR4 mutant R68A, expressed on COS cells
T2 sequence: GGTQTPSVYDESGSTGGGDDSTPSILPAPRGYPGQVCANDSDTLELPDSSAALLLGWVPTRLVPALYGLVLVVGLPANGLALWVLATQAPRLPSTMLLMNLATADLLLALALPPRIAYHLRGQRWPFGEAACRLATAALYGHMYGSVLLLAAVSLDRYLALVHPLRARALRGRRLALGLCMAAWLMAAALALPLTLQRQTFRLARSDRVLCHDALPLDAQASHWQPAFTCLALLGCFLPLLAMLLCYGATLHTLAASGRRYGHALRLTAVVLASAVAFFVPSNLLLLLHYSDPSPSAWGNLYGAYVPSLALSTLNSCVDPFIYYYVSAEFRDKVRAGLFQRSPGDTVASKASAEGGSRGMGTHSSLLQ

T3: protease-activated receptor 4 (PAR4), wild type, expressed on transiently transfected COS-7 cells
T3 sequence: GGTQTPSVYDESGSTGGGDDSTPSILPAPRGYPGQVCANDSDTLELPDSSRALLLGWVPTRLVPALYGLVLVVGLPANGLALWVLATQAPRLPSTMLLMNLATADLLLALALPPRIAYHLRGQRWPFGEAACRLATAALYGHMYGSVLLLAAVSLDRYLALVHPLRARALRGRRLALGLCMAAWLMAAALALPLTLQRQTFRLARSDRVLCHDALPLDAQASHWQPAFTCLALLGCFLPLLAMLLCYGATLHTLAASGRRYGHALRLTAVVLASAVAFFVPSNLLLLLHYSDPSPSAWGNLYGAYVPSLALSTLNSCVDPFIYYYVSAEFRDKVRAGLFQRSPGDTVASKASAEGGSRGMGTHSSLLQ


target: T1, protease-activated receptor 4 (PAR4), …; experiment: cell-based or functional assay

Chain of plasmin (P00747 20-580): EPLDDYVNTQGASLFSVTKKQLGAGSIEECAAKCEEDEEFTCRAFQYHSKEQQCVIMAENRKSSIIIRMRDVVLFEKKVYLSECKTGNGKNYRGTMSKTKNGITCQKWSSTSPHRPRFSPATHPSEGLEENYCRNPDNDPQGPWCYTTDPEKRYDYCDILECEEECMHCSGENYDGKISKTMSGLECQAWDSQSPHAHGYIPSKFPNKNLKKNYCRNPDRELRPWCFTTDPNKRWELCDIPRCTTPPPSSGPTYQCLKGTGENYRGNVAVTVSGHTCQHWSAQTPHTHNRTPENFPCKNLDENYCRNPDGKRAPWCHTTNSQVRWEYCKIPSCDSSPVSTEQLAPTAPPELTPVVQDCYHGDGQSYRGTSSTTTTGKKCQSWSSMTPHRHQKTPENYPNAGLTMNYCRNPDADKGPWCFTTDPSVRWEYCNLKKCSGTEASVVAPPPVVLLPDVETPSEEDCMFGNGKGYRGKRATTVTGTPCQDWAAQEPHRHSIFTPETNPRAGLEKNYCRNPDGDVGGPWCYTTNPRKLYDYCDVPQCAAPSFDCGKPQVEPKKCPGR
Chain of plasmin (P00747 581-810): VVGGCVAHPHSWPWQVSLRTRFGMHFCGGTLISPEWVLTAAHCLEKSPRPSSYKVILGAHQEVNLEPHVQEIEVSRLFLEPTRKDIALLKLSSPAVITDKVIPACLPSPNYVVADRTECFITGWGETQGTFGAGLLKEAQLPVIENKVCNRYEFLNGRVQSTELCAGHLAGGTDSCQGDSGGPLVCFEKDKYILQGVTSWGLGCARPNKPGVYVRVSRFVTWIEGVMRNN
Chain of factor IXa (P00740 47-191): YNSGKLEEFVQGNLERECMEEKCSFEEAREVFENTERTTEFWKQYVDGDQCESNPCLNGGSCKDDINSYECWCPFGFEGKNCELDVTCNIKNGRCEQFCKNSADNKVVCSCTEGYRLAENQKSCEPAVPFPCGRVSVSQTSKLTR
Chain of factor IXa (P00740 227-461): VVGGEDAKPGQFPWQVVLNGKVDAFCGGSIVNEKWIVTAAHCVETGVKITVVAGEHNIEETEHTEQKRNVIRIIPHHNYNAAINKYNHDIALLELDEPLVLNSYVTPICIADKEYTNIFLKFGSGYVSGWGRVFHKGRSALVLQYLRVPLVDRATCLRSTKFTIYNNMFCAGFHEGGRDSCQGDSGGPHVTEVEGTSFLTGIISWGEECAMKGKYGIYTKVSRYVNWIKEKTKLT

Molecule | EC50 of activation of PAR4 on COS cells [nM]
GYPGQV [PAR4 activating peptide, hexapeptide GYPGQV] | ~100000

target: protease-activated receptor 4 (PAR4), wild type, expressed on transiently transfected COS-7 cells (human) (UniProt Q96RI0); experiment: cell-based or functional assay

Molecule | phosphoinositide hydrolysis, half-maximal concentration (EC50) [nM]
thrombin (alpha-thrombin) (enzyme) | 5
trypsin (enzyme) | 5

test system: T2, PAR4 mutant R68A, expressed on COS cells; experiment: not given

Molecule | phosphatidylinositol 4,5 diphosphate hydrolysis assay
thrombin (alpha-thrombin) | (R68A) had no effect on PAR4 activation by thrombin or trypsin
trypsin | (R68A) had no effect on PAR4 activation by thrombin or trypsin

test system: T3, protease-activated receptor 4 (PAR4), wild type, expressed on transiently transfected COS-7 cells; experiment: not given

Molecule | phosphoinositide hydrolysis (activation of PAR4)
chymotrypsin | Chymotrypsin and elastase failed to activate PAR4
factor Xa | Small effects, however, were observed with factor Xa at high concentrations (100 nM)
factor IXa | had little or no activity against PAR4
plasmin | had little or no activity against PAR4
factor VIIa | had little or no activity against PAR4
factor XIa | had little or no activity against PAR4
elastase | Chymotrypsin and elastase failed to activate PAR4
urokinase | had little or no activity against PAR4
